# Results published in publication PMC3320033 (Virology, 2012).
# B1: Sf6 portal protein (gp3) (natural protein, bacteriophage Sf6, UniProt Q716H2 1-708, looked up)
# chain: MAETLEKKHERIMLRFDRAYSPQKEVREKCIEATRFARVPGGQWEGATAAGTKLDEQFEKYPKFEINKVATELNRIIAEYRNNRITVKFRPGDREASEELANKLNGLFRADYEETDGGEACDNAFDDAATGGFGCFRLTSMLVNEYDPMDDRQRIAIEPIYDPSRSVWFDPDAKKYDKSDALWAFCMYSLSPEKYEAEYGKKPPTSLDVTSMTSWEYNWFGADVIYIAKYYEVRKESVDVISYRHPITGEIATYDSDQVEDIEDELAIAGFHEVARRSVKRRRVYVSVVDGDGFLEKPRRIPGEHIPLIPVYGKRWFIDDIERVEGHIAKAMDPQRLYNLQVSMLADTAAQDPGQIPIVGMEQIRGLEKHWEARNKKRPAFLPLREVRDKSGNIIAGATPAGYTQPAVMNQALAALLQQTSADIQEVTGGSQAMQQMPSNIAQETVNNLMNRADMASFIYLDNMAKSLKRAGEVWLSMAREVYGSEREVRIVNEDGSDDIAVLSAQVVDRQTGAVVALNDLSVGRYDVTVDVGPSYTARRDATVSVLTNVLSSMLPTDPMRPAIQGIILDNIDGEGLDDFKEYNRNQLLISGIAKPRNEKEQQIVQQAQMAAQSQPNPEMVLAQAQMVAAQAEAQKATNETAQTQIKAFTAQQDAMESQANTVYKLAQARNIDDKAVMEAIRLLKDVAESQQQQFQSPPQSPADLMPS
# B2: Sf6 tail needle (gp9) (natural protein, bacteriophage Sf6, UniProt Q716G6 1-282, looked up)
# chain: MADSNLNVPVIIQATRLDTSVLPRNIFSQSYLLYVIAQGTDVGNVANKANEAGQGAYDAQVRNDEQDVILADHEQRISAAEATLVNHEERIRQAESTLQDHETRIAQNESDISSLDTRVQSLESQVSDHETRIDALEYATTRKKSEVVYSGVSVTIPTAPTNLVSLLKTLTPSSGTLAPFFDTVNNKMVVFNENKTLFFKLSIVGTWPSGTANRSMQLTFSGSVPDTLVSSRNSATTTDNILLATFFSVDKDGFLATNGSTLTIQSNGASFTATTIKIIAEQ
# B3: Sf6 tail plug protein gp8 (natural protein, bacteriophage Sf6, UniProt Q716G7 1-472, looked up)
# chain: MPIQQLPLMKGVGKDFRNADYIDYLPVNMLATPKEILNSSGYLRSFPGIAKRSDVNGVSRGVEYNMAQNAVYRVCGGKLYKGESEVGDVAGSGRVSMAHGRTSQAVGVNGQLVEYRYDGTVKTVSNWPTDSGFTQYELGSVRDITRLRGRYAWSKDGTDSWFITDLEDESHPDRYSAQYRAESQPDGIIGIGTWRDFIVCFGSSTIEYFSLTGATTAGAALYVAQPSLMVQKGIAGTYCKTPFADSYAFISNPATGAPSVYIIGSGQVSPIASASIEKILRSYTADELADGVMESLRFDAHELLIIHLPRHVLVYDASSSANGPQWCVLKTGLYDDVYRAIDFIYEGNQITCGDKLESVTGKLQFDISSQYGLQQEHLLFTPLFKADNARCFDLEVESSTGVAQYADRLFLSATTDGINYGREQMIEQNEPFVYDKRVLWKRVGRIRKNVGFKLRVITKSPVTLSGAQIRIE
# B4: Sf6 tail plug protein gp7 (natural protein, bacteriophage Sf6, UniProt Q716G8 1-160, looked up)
# chain: MATVLTKGEIVLFALRKFAIASNASLTDVEPQSIEDGVNDLEDMMSEWMINPGDIGYAFATGDEQPLPDDESGLPRKYKHAVGYQLLLRMLSDYSLEPTPQVLSNAQRSYDALMTDTLVVPSMRRRGDFPVGQGNKYDVFTSDRYYPGDLPLIDGDIPNA
# Target: the molecule itself
# Assay: cryo-EM structure
row,Protein,stoichiometry N
1,B1,12
2,B2,3
3,B3,6
4,B4,12
